Source: PMC5657976
pKd: −log10 of the molar value.

Experiments:
[1] = molecular target: GST-obscurin-Ig58/Ig59^WT (human) (UniProt Q5VST9); assay: pull-down; 12 ug GST fusion protein on glutathione-Sepharose with 5 ul of the translation reaction; 10 mM Tris-HCl pH 7.9, 150 mM NaCl, 0.5% NONIDET P-40, 1 mM DTT, 1.5 hrs at 4°C; anti-myc Western blot, densitometry normalised to GST protein
[2] = molecular target: GST-linked titin ZIg9/ZIg10 (human) (UniProt Q8WZ42); assay: SPR; Nicoya OpenSPR, GST-linked titin ZIg9/ZIg10 immobilised on an Au-GST chip; obscurin Ig58/Ig59 injected at 50 ul/min; 20 mM Tris pH 7.5, 50 mM NaCl; 27°C (methods; 22°C in the legend of S11 Fig); 1:1 interaction model

bound fraction, fold over GST-Ig58/Ig59^MUT [1] [fold]	pKd [2]	Substance
2	–	myc-tagged titin domains ZIg9/ZIg10 (from UniProt Q8WZ42-12 1-35991) (domain or fragment)
–	6.97	obscurin Ig58/Ig59 (wild type) (from UniProt Q5VST9 1-7968) (domain or fragment)
–	5.80	obscurin Ig58/Ig59 p.Arg4444Trp (domain or fragment)
